In data set [1] the test system is lysosomal GCase in immortalized B-Lymphoblast cells derived from a Gaucher I patient (GM10870). Description: Lysosomal GCase activity by flow cytometry with LysoLive fluorogenic GCase substrate. It counts as cell-based, human. The conditions noted are these: 48 hours; for lysosomal GCase activity, Ambroxol and its targeted derivative: multiple concentrations, FIG. 15; for lysosomal GCase activity compared to native drug SB216763: 1.0-5.0 uM, FIG. 14. The method, then:
Immortalized B-Lymphoblast cells derived from a Gaucher I patient (GM10870, CCR) were incubated overnight in a CO2 incubator at 37° C./5% CO2. Equal numbers of cells (50,000 cells/well) were transferred to individual wells of 96-well tissue culture plates and treated with the native drug NSC 95397 or the organelle targeted NSC 95397 derivatives (M2770, M2771) at multiple concentrations (0.5-10 uM) and incubated at 37° C./5% CO2 for 48 hours. A lysosomal-targeted fluorogenic GCase substrate (MarkerGene™ LysoLive™ Lysosomal β-Glucosidase Assay Kit, Product M2775) was then added to the wells according to the manufacturer's instructions to a final concentration of 5 uM and cells were incubated a further 16 hours. DRAQ7 (dead-cell stain) was then added to the cells to a final concentration of 3 uM and cells immediately analyzed using a BD Accuri C6 flow cytometer, capturing 10000 live cell events and the median fluorescence of the stained cell populations graphed as shown in FIG. 13.
Immortalized B-Lymphoblast cells derived from a Gaucher I patient (GM10870, CCR) were incubated overnight in a CO2 incubator at 37° C./5% CO2. Equal numbers of cells (50,000 cells/well) were transferred to individual wells of 96-well tissue culture plates and treated with native drug SB216763 or the organelle targeted SB216763 derivatives (M2747, M2748) at multiple concentrations (1.0-5.0 uM) and incubated at 37° C./5% CO2 for 48 hours. A lysosomal-targeted fluorogenic GCase substrate (MarkerGene™ LysoLive™ Lysosomal β-Glucosidase Assay Kit, Product M2775) was then added to the wells according to the manufacturer's instructions to a final concentration of 5 uM and cells were incubated a further 16 hours. DRAQ7 (dead-cell stain) was then added to the cells to a final concentration of 3 uM and all cell wells immediately analyzed using a BD Accuri C6 flow cytometer, capturing 10000 live cell events and the median fluorescence of the stained cell populations graphed as shown in FIG. 14.
Immortalized B-lymphoblast cells derived from a Gaucher I patient leukocytes (GM10870, CCR) were incubated overnight in a CO2 incubator at 37° C./5% CO2. Equal numbers of cells (50,000 cells/well) were transferred to individual wells of 96-well tissue culture plates and treated with the native drug Ambroxol or the organelle-targeted Ambroxol derivative (M2781) at the multiple concentrations shown and incubated at 37° C./5% CO2 for 48 hours. Following drug treatment, a lysosomal-targeted fluorogenic GCase substrate (MarkerGene™ LysoLive™ Lysosomal β-Glucosidase Assay Kit, Product M2775) was then added to the wells according to the manufacturer's instructions to a final concentration of 5 uM and cells were incubated a further 16 hours. DRAQ7 (dead-cell stain) was then added to the cells to a final concentration of 3 uM and cells immediately analyzed using a BD Accuri C6 flow cytometer, capturing 10000 live cell events and the median fluorescence of the stained cell populations graphed as shown in FIG. 15.
Background: A flow cytometer gives signals particle by particle.

In data set [2] the test system is Glc-Cer and allied glycolipids in Gaucher patient cells. In words: TLC analysis of the clearance of excess glycolipids after TPC treatment. It counts as cell-based, human. The conditions noted are these: 10 uM final concentration, 3 days, FIG. 9.
Description: A series of targeted pharmacological chaperone derivatives were compared for their abilities to affect glycolipid biosynthesis by 1D-TLC.
Primary Human Fibroblasts from Gaucher I (F0361999) patients were obtained from Istituto Giannina Gaslini (Genova, Italy). Primary Human Fibroblasts from a healthy donor (AG06173) and Gaucher I (GM00372A) patients were obtained from the Coriell Institute for Medical Research (Camden, N.J.). Cells were cultured in Minimum Essential Medium Eagle supplemented with 10% FCS.
Immortalized B-lymphocytes from healthy donor (GM14643), Gaucher I (GM10870, GM10874), and Gaucher II (GM08752) patients were obtained from the Coriell Institute for Medical Research.
Cell labeling solutions were prepared by diluting substrate stock solutions in the appropriate medium for the cell line (see above) without serum. TPC treatment solutions were prepared by diluting stock solutions in complete media appropriate for the cell line. Cells were treated with either the targeted pharmacological chaperones (10 uM final concentration), miglustat (10 uM) or no drug (control) for 3 days prior to all analyses. For lipid analyses cells were counted on a TC-10 Automated Cell Counter (Bio-Rad, Hercules, Calif.) harvested by centrifugation (800×g, 5 min.) and subjected to one PBS wash (1 mL per sample) and centrifugation as above. […]

Results on six molecules are retold here after patent publication US10543282B2, “Targeted peptide conjugates” (Marker Gene Technologies, Inc., priority 2014, dated 2020).

Non-standard residues stand in square brackets, D forms with d. Residues, ends and D or L forms follow the SMILES beside them. ξ: configuration not given here. *: point of attachment. X2 = Cn1cc(C2=C(c3ccc(NC(=O)CCCN4C(=O)CC(*)C4=O)cc3)C(=O)NC2=O)c2ccccc21; X1 = O=C(CCCN1C(=O)CC(*)C1=O)Nc1c(Br)cc(Br)cc1CN[C@H]1CC[C@H](O)CC1; ξC = NC(CS)C(=O)O; ξA = CC(N)C(=O)O

As for `Nc1c(Br)cc(Br)cc1CNC1CCC(O)CC1` (stereo not drawn) [Ambroxol, 4-(((2-Amino-3,5-dibromophenyl)methyl)amino)cyclohexanol, reference compound], the “lysosomal GCase activity, Ambroxol and its targeted derivative” value in data set [1] was “slightly inhibitory toward lysosomal GCase activity”. Turning to `CC(=O)NC(CSC1CC(=O)N(CCCC(=O)Nc2ccc(C3=C(c4cn(C)c5ccccc45)C(=O)NC3=O)cc2)C1=O)C(=O)NC(Cc1ccccc1)C(=O)NC(Cc1ccccc1)C(=O)NC(CCCCN)C(=O)NC(CC(=O)O)C(=O)NC(CCC(=O)O)C(=O)NC(CC(C)C)C(=O)O` (stereo not drawn) [M2747] (Ac-C(X2)FFKDEL-OH; configuration not given here), the “lysosomal GCase activity compared to native drug SB216763” value in data set [1] is “increased lysosomal GCase activity in lysosomes compared to the native drug”.

On to `CC(C)CC(NC(=O)C(CCCNC(=N)N)NC(=O)C(CCC(N)=O)NC(=O)C(Cc1ccc(O)cc1)NC(=O)C(CC(=O)O)NC(=O)C(CO)NC(=O)C(C)NC(=O)CN)C(=O)NCC(=O)NC(CSC1CC(=O)N(CCCC(=O)Nc2ccc(C3=C(c4cn(C)c5ccccc45)C(=O)NC3=O)cc2)C1=O)C(=O)O` (stereo not drawn) [M2748] (H-GASDYQRLGC(X2)-OH; configuration not given here), for which, in data set [1], the “lysosomal GCase activity compared to native drug SB216763” value is given as “increased lysosomal GCase activity in lysosomes compared to the native drug”. Still for that read-out and setting: under `CC(=O)NC(CSC1CC(=O)N(CCCC(=O)Nc2ccc(C3=C(c4cn(C)c5ccccc45)C(=O)NC3=O)cc2)C1=O)C(=O)NCC(=O)NCC(=O)NCC(=O)NCC(=O)NCC(=O)NC(C)C(=O)O` (stereo not drawn) [M2749] (Ac-C(X2)GGGGGA-OH; configuration not given here) stands “equivalent or reduced lysosomal staining/drug efficacy than native drug”. On to `CC(=O)NC(CSC1CC(=O)N(CCCC(=O)Nc2c(Br)cc(Br)cc2CN[C@H]2CC[C@H](O)CC2)C1=O)C(=O)NCC(=O)NCC(=O)NCC(=O)NCC(=O)NCC(=O)NC(C)C(=O)O` (stereo partly drawn) [M2781] (Ac-[ξC](X1)GGGGG[ξA]-OH), for which the “lysosomal GCase activity, Ambroxol and its targeted derivative” value in data set [1] is “increased lysosomal GCase activity”. As for `CCCCN1C[C@H](O)[C@@H](O)[C@H](O)[C@H]1CO` [miglustat, N-butyl-deoxynojirimycin], the “effect on glycolipid biosynthesis / clearance of excess glycolipids (Glc-Cer and allied glycolipids), 1D-TLC” value in data set [2] is reported as “moderate effect”.
